T1: MCF-7 세포주의 세포막에 발현된 B7-H3 (UniProt Q5ZPR3 29-534)
T1 construct: whole, on cells; Endogenous B7-H3 of the MCF-7 cell line; also called MCF-7 cell
T1 sequence (looked up): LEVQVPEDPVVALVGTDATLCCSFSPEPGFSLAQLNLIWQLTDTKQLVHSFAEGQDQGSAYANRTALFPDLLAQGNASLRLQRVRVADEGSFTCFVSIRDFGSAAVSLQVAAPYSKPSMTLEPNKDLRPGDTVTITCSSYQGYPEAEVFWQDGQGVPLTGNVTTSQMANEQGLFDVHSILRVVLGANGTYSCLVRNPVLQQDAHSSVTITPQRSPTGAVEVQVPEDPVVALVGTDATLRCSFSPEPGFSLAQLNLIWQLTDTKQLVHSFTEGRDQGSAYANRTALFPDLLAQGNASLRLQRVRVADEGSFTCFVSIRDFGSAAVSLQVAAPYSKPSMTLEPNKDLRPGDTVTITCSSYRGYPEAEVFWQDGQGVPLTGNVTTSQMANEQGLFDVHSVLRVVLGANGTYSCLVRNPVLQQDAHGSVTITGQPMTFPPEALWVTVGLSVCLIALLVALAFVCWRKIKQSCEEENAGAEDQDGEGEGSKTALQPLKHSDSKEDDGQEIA


Assays:
RKO/B7H3 세포주에 과발현된 B7-H3 = RKO/B7H3 세포주에 과발현된 B7-H3 (UniProt Q5ZPR3); assay: cell ELISA on fixed RKO/B7H3 cells (표 3)
[1] = biological target: T1, MCF-7 세포주의 세포막에 발현된 B7-H3; assay: cell ELISA on fixed MCF-7 cells (표 2)

Row | Binder | EC50 (RKO/B7H3 세포주에 과발현된 B7-H3) [pM] | EC50 [1] [pM]
1 | #8 항체 (B7-H3 항체) (antibody, V domains shown) VH: EVQLLESGGGLVQPGSSLRLSCAASGFTFSSYWISWVRQAPGKGLEWVSEISPSGNTNYNPSLKSRFTISRDNSKNTLYLQMNSLRAEDTAVYYCAREVGDLLDYWGQGTLVTVSS VL: QSVLTQPPSASGTPGQRVTISCSGSNIGNNYVSWYQQLPGTAPKLLIYQDSKRPSGVPDRFSGSKSGTSASLAISGLRSEDEADYYCLVWDRSSDHFVFGGGTKLTVL | 60 | 159
2 | #2 항체 (B7-H3 항체) (antibody, V domains shown) VH: EVQLLESGGGLVQPGGSLRLSCAASGFTFSAYYMIWVRQAPGKGLEWVSITNPSGGVTSYAQKFQGRFTISRDNSKNTLYLQMNSLRAEDTAVYYCARVGGRGFDIWGQGTLVTVSS VL: EIVLTQSPGTLSLSPGERATLSCHASQGISNYVAWYQQKPGQAPRLLIYDASNRATGIPDRFSGSGSGTDFTLTISHLEPEDFAVYYCQQSYSTLLTFGQGTKVEIK | 36 | 61
3 | #5 항체 (B7-H3 항체) (antibody, V domains shown) VH: EVQLLESGGGLVQPGGSLRLSCAASGFTFSTYAMSWVRQAPGKGLEWVSAISGSGGSTLYADSVKGRFTISRDNSKNTLYLQMNSLRAEDTAVYYCARGGSATWAFDLWGQGTLVTVSS VL: QSVLTQPPSASGTPGQRVTISCSGSSSNIGSNYVYWYQQLPGTAPKLLIYRNNQRPSGVPDRFSGSKSGTSASLAISGLRSEDEADYYCGTWDSSLSGVVFGGGTKLTVL | 91 | 1740
4 | #9 항체 (B7-H3 항체) (antibody, V domains shown) VH: EVQLLESGGGLVQPGGSLRLSCAASGFTFSSYAMNWVRQAPGKGLEWVSTISGSGGQTYYADSVKGRFTISRDNSKNTLYLQMNSLRAEDTAVYYCARWRSIWAFDYWGQGTLVTVSS VL: QSVLTQPPSASGTPGQRVTISCSDNNIGSKSVHWYQQLPGTAPKLLIYDNNKRPSGVPDRFSGSKSGTSASLAISGLRSEDEADYYCGTWDDSLSGPVFGGGTKLTVL | 50 | 322
5 | #4 항체 (B7-H3 항체) (antibody, V domains shown) VH: EVQLLESGGGLVQPGGSLRLSCAASGFTFSSYGMHWVRQAPGKGLEWVSAISGSGTSIYYANSVKSRFTISRDNSKNTLYLQMNSLRAEDTAVYYCARGAGWFDYWGQGTLVTVSS VL: QSVLTQPPSASGTPGQRVTISCSGSTSNIGSNTVNWYQQLPGTAPKLLIYGKNIRPNGVPDRFSGSKSGTSASLAISGLHSEDEADYYCQSYDSSLSGWVFGGGTKLTVL | 42 | 502
6 | #7 항체 (B7-H3 항체) (antibody, V domains shown) VH: EVQLLESGGGLVQPGGSLRLSCAASGFTFSNFWIGWVRQAPGKGLEWVSWINPPGSITSYADSVKGRFTISRDNSKDTLYLQMNSLRAEDTAVYYCAREVGDVLDYWGQGTLVTVSS VL: QSVLTQPPSASGTPGQRVTISCTGTSSDIGRYNYVSWYQQLPGTAPKLLIYRNTQRPSGVPDRFSGSKSGTSASLAISGLRSEDEADYYCGTWDSSLNAYVFGGGTKLTVL | 187 | 1010

Second part, the binder after the results:

Row | EC50 (RKO/B7H3 세포주에 과발현된 B7-H3) [pM] | EC50 [1] [pM] | Binder
7 | 15 | 605 | #1 항체 (B7-H3 항체) (antibody, V domains shown) VH: EVQLLESGGGLVQPGGSLRLSCAASGFTFSSYAMSWVRQAPGKGLEWVSTITGSGGSTYYADSVKGRFTISRDNSKNTLYLQMNSLRAEDTAVYYCARYKSGAFDIWGQGTLVTVSS VL: EIVLTQSPGTLSLSPGERATLSCRASQGIGNYLGWYQQKPGQAPRLLIYTASSLQSGIPDRFSGSGSGTDFTLTISRLEPEDFAVYYCQQGYSTPSWTFGQGTKVEIK
8 | 65 | 197 | #3 항체 (B7-H3 항체) (antibody, V domains shown) VH: EVQLLESGGGLVQPGGSLRLSCAASGFTFSTYYMTWVRQAPGKGLEWVSIINPRGGSTSYAEKFQGRFTISRDNSKNTLYLQMNSLRAEDTAVYYCARWNLGMDVWGQGTLVTVSS VL: EIVLTQSPGTLSLSPGERATLSCRVSQSISSYLNWYQQKPGQAPRLLIYDASHRATGIPDRFSGSGSGTDFTLTISRLEPEDFAVYYCQQYYAPSVTFGQGTKVEIK
9 | 65 | 234 | #6 항체 (B7-H3 항체) (antibody, V domains shown) VH: EVQLLESGGGLVQPGGSLRLSCAASGFTFSTYAISWVRQAPGKGLEWVSSIYYSGYTHYNPSLESRFTISRDNSKNTLYLQMNSLRAEDTAVYYCARGYSGWMDVWGQGTLVTVSS VL: QSVLTQPPSASGTPGQRVTISCGGNNIGSKSVHWYQQLPGTAPKLLIYDNNKRPSGVPNRFSGSKSGTSASLAISGLRSEDEADYYCAAWDDSLNVPVFGGGTKLTVL
